Assay results reported in article PMC12753105, “Evolution of a fuzzy ribonucleoprotein complex in viral assembly” (eLife, 2025).

Target: the molecule itself
Experiment: dynamic light scattering

B1: LRS peptide N_(210-246):G214C (peptide)
peptide: MAGNCGDAALALLLLDRLNQLESKMSGKGQQQQGQTV
notes: also called N_(LRS, 210-246):G214C; G214C cysteine mutant LRS peptide
**Q.** Does B1 bind?
**A.** binds
